Experimental data: patent publication US10376603B2, “Engineered fluorinated biomaterials” (New York University, priority 2015, dated 2019)

Key:
Type in all cases: physicochemical
[1] = UV-Vis temperature transition (Tt) at 320 nm; conditions: 50 mM Na2HPO4, 0.5 M NaCl, pH 8.0
Description: Proteins were characterized for their temperature transition (Tt) behavior at a wavelength of 320 nm using a UV-Vis Cary-50 (Varian Inc., Cary, N.C.) equipped with a TC125 temperature regulator (Quantum Northwest, Liberty Lake, Wash.). Samples were heated at a rate of 1° C./minute from 15° C. to 85° C. The Tt was determined by taking the first derivative of the normalized absorbance (320 nm) as a function of temperature.

[2] = Doxorubicin loading/encapsulation by gel filtration and absorbance at 485 nm; conditions: 100 μM free doxorubicin, 4° C., 2 hours
Description: A mixture of 100 μM free doxorubicin (DOX) (see the extraction method below) and either CE2-RGD or CE2-RGD-TFL and standards (100 μM, 75 μM, 50 μM, 25 μM, 10 μM, 5 μM and 0 μM) were incubated at 4° C. for 2 hours in the dark. After this incubation period, the mixtures were subjected to G-25 Sephadex (Sigma-Aldrich) gel filtration chromatography with fifteen elutions of 50 mM Na2HPO4, 0.5 M NaCl, pH 8.0 at room temperature. The eluted fractions were subjected to absorbance readings ranging from 420-600 nm (Molecular Devices Spectramax M2). The eluted fraction with highest absorbance reading at 485 nm was incorporated in the standard curve trendline equation to determine the total concentration of DOX bound to the protein. That protein sample was also subjected to the BCA assay enhanced protocol to determine the total protein concentration.
Extraction of DOX from a doxorubicin-HCl (DOX-HCl) was required to achieve free hydrophobic doxorubicin for pore encapsulation. […] The final concentration of free DOX was determined by generating a standard curve from absorbance of DOX-HCl from 420-600 nm and incorporating the free DOX into the trendline equation. The absorbance measurement for free DOX concentration determination was taken at 485 nm.

[3] = Transmission electron microscopy of particles; conditions: 0.5 mg/mL
Description: Transmission electron microscopy (TEM) experiments were undertaken to visualize and confirm particle sizes. The CE2-RGD-TFL (0.5 mg/mL) was heated to 20° C. or 50° C. for 1.5 hours followed by application of the protein onto copper square mesh TEM grids and 1% uranyl acetate negative staining. The TEM grids were imaged using a FEI Titan Halo 300 kV electron microscope.

[4] = Circular dichroism secondary structure
Description: Circular dichroism (CD) spectroscopy was used to confirm the secondary structure. This was accomplished using a Jasco J-815 CD spectrometer with a PTC-423 S single position Peltier temperature control system. For CD experiments assessing the protein structure alone, protein concentrations were kept constant at 0.200 mg/mL in of 50 mM Na2HPO4, 0.5 M NaCl, pH 8.0. The wavelength spectrum was measured over the range of 200-300 nm with a bandwidth (step size) of 1 nm. The scanning mode was continuous at 20 nm/minute. All wavelength CD runs were conducted at 4° C.
In terms of calculations for CD analysis, molar residue ellipticity (θMRE) was calculated from ellipticity (θ) using the following equation: (1) θMRE=θ/(10*Protein Conc.*Path Length*Length of Sequence)

[5] = Dynamic light scattering as a function of temperature; conditions: doxorubicin loaded versus unloaded
Description: Dynamic light scattering (DLS) measurements were performed on a Zetasizer Nano Series model Nano ZS90 in a type 21 quartz cuvette with the applied settings: material protein (refractive index 1.450), absorption 0.001, dispersant PBS with a viscosity of 1.0200 cP and refractive index of 1.335. Measurements were taken in triplicates, conducting 10 runs for each measurement, with a delay time of 2 seconds. Approximately, 1.0 mL of 0.5, 0.75 or 1.0 mg/mL CE2-RGD-TFL or CE2-RGD in 50 mM Na2HPO4, 0.5 M NaCl, pH 8.0 was then added to the cell.

B1: CE2-RGD-TFL: fluorinated protein block copolymer, SEQ ID NO:18: COMPcc domain flanked by RGD linkers plus elastin-like domain; all 11 leucines as 5,5,5-trifluoroleucine (protein)
chain: MRGSHHHHHHGSACELAARGDATATATATAACGDLAPQMLRELQETNAALQDVRELLRQQVKEITFLKNTVMESDASGLQAARGDATATATATAVDKPIAASAVPGVGVPGVGVPGFGVPGVGVPGVGVPGVGVPGVGVPGFGVPGVGVPGVGVPLEGSGTGAKLN
modifications: all leucines as 5,5,5-trifluoroleucine
notes: all 11 leucines as 5,5,5-trifluoroleucine
Tt (transition temperature) ([1]; Conc. 0.20 mg/mL): 52.04 ± 0.84 °C
Tt (transition temperature) ([1]; Conc. 0.50 mg/mL): 47.87 ± 0.72 °C
Tt (transition temperature) ([1]; Conc. 0.75 mg/mL): 46.36 ± 0.03 °C
Tt (transition temperature) ([1]; Conc. 1.00 mg/mL): 45.71 ± 0.51 °C
available doxorubicin encapsulated upon saturation [2]: 49.1%
doxorubicin loading per milligram of protein [2]: 29.90±2.68 μg per milligram
particle appearance (TEM) ([3]; 50° C. for 1.5 hours): amorphous aggregates of no discernible uniformity in size
particle diameter (TEM) ([3]; 1.5 hour incubation at 20° C.): 30 nm
secondary structure (circular dichroism) versus CE2-RGD ([4]; 0.200 mg/mL, 4° C.): less structure
secondary structure (circular dichroism) upon loading of doxorubicin ([4]; doxorubicin loaded versus unloaded): increase in secondary structure
onset of temperature-driven coacervation (DLS) upon loading of doxorubicin [5]: delay in the onset of temperature-driven coacervation
